Laboratory results: article PMC6056610

What was measured:
[1] = molecular target: BG505 NFL N554P (HIV-1 BG505 (clade A)); test: SEC; Superdex 200 16/60 or 10/300 GL after lectin-affinity chromatography; also after negative selection or rEK cleavage where told
[2] = molecular target: BG505 NFL S553P (HIV-1 BG505 (clade A)); test: as above
[3] = molecular target: 16055 NFL L555P (HIV-1 16055 (clade C)); test: negative stain electron microscopy; 2D class averages (RELION) of purified trimers, ~0.01 mg/mL, 0.7% uranyl formate
[4] = molecular target: 16055 NFL L555P (HIV-1 16055 (clade C)); test: SEC; Superdex 200 16/60 or 10/300 GL after lectin-affinity chromatography; also after negative selection or rEK cleavage where told
[5] = molecular target: 16055 NFL S553P (HIV-1 16055 (clade C)); test: as above
[6] = molecular target: 16055 NFL Q563P (HIV-1 16055 (clade C)); test: negative stain electron microscopy; 2D class averages (RELION) of purified trimers, ~0.01 mg/mL, 0.7% uranyl formate
[7] = molecular target: 16055 NFL Q563P (HIV-1 16055 (clade C)); test: SEC; Superdex 200 16/60 or 10/300 GL after lectin-affinity chromatography; also after negative selection or rEK cleavage where told
[8] = molecular target: 16055 NFL N554P (HIV-1 16055 (clade C)); test: as above
[9] = molecular target: 16055 NFL I559P (HIV-1 16055 (clade C)); test: as above
[10] = molecular target: BG505 NFL I559P (HIV-1 BG505 (clade A)); test: as above
[11] = molecular target: 16055 NFL Q562P (HIV-1 16055 (clade C)); test: negative stain electron microscopy; 2D class averages (RELION) of purified trimers, ~0.01 mg/mL, 0.7% uranyl formate
[12] = molecular target: 16055 NFL Q562P (HIV-1 16055 (clade C)); test: SEC; Superdex 200 16/60 or 10/300 GL after lectin-affinity chromatography; also after negative selection or rEK cleavage where told
[13] = molecular target: BG505 NFL Q562P (HIV-1 BG505 (clade A)); test: as above
[14] = molecular target: BG505 NFL L555P (HIV-1 BG505 (clade A)); test: negative stain electron microscopy; 2D class averages (RELION) of purified trimers, ~0.01 mg/mL, 0.7% uranyl formate
[15] = molecular target: BG505 NFL L555P (HIV-1 BG505 (clade A)); test: SEC; Superdex 200 16/60 or 10/300 GL after lectin-affinity chromatography; also after negative selection or rEK cleavage where told
[16] = molecular target: BG505 NFL Q563P (HIV-1 BG505 (clade A)); test: as above

Substance: BG505 NFL N554P (domain or fragment)
- stoichiometry N [1]: 3

Substance: BG505 NFL S553P (domain or fragment)
- stoichiometry N [2]: 3

Substance: 16055 NFL L555P (domain or fragment)
- stoichiometry N [3]: 3
- stoichiometry N [4]: 3

Substance: 16055 NFL S553P (domain or fragment)
- stoichiometry N [5]: 3

Substance: 16055 NFL Q563P (domain or fragment)
- stoichiometry N [6]: 3
- stoichiometry N [7]: 3

Substance: 16055 NFL N554P (domain or fragment)
- stoichiometry N [8]: 3

Substance: 16055 NFL I559P (domain or fragment)
- stoichiometry N [9]: 3

Substance: BG505 NFL I559P (domain or fragment)
- stoichiometry N [10]: 3

Substance: 16055 NFL Q562P (domain or fragment)
- stoichiometry N [11]: 3
- stoichiometry N [12]: 3

Substance: BG505 NFL Q562P (domain or fragment)
- stoichiometry N [13]: 3

Substance: BG505 NFL L555P (domain or fragment)
- stoichiometry N [14]: 3
- stoichiometry N [15]: 3

Substance: BG505 NFL Q563P (domain or fragment)
- stoichiometry N [16]: 3
